Assay results taken from publication PMC12443476 (eLife, 2025).

Molecular target: T1, biotinylated Tom70 (109-600) with N-terminal AVI tag (human, UniProt O94826 109-600, biotin (AVI tag, by co-expressed BirA))
T1 construct: also called biotin-Tom70; immobilized Tom70
T1 sequence: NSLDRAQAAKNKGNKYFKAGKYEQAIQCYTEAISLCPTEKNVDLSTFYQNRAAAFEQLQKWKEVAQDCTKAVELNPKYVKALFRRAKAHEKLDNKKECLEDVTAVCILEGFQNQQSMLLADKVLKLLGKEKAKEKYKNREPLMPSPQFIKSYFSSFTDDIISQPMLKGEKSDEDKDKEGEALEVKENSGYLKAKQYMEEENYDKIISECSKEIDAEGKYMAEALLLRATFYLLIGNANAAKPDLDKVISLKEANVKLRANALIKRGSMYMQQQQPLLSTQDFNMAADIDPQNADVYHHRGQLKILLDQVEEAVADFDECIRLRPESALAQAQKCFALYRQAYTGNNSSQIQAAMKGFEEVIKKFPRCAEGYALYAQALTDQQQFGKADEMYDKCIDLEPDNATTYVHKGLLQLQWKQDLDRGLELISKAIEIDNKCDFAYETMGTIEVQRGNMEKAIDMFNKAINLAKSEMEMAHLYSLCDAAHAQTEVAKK
Experiment: SPR
Conditions: both partners purified

## IILRLGSPLSLNMARKALNSLEDKAFQ [Orf9b T60A peptide]
  binding result: binds
